# Test results published in the supplement of paper PMC9112550, “Optimization of the antimicrobial peptide Bac7 by deep mutational scanning” (BMC Biology, 2022).
# Test system: Escherichia coli TOP10
# Assay: shrunken log2 fold change of peptide-encoding DNA abundance (4.5 h post-induction vs induction); higher = less antimicrobial activity (less host growth inhibition)
# Conditions: time post-induction: 4.5 h; library: site-saturation at positions 5, 18, 19, 20
# 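Also: peptides expressed intracellularly from a pBAD plasmid library in pooled LB shake-flask culture, induced with 0.3% L-arabinose, DNA abundance read by NGS, three biological replicates, DESeq2 with apeglm shrinkage.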
row,Sequence,shrunken log2 fold change
1,RRIRARPPRLPRPRPRPSFNPRP,-0.268
2,RRIRIRPPRLPRPRPRPYKGPRP,-0.018
3,RRIRGRPPRLPRPRPRPLLRPRP,0.485
4,RRIRGRPPRLPRPRPRPWCNPRP,-0.276
5,RRIRTRPPRLPRPRPRPNKHPRP,-0.448
6,RRIRPRPPRLPRPRPRPCGKPRP,0.0102
7,RRIRQRPPRLPRPRPRPPWTPRP,0.0238
8,RRIRHRPPRLPRPRPRPNAYPRP,-0.219
9,RRIRIRPPRLPRPRPRPPMEPRP,-0.0294
10,RRIRWRPPRLPRPRPRPKCMPRP,0.531
11,RRIRFRPPRLPRPRPRPPATPRP,0.562
12,RRIRERPPRLPRPRPRPQYMPRP,-0.213
13,RRIRPRPPRLPRPRPRPVKRPRP,-0.171
14,RRIRFRPPRLPRPRPRPPNMPRP,-0.0513
15,RRIRLRPPRLPRPRPRPCMFPRP,-0.431
16,RRIRSRPPRLPRPRPRPQDMPRP,0.035
17,RRIRLRPPRLPRPRPRPLPEPRP,0.39
18,RRIRERPPRLPRPRPRPMWTPRP,-0.306
19,RRIRQRPPRLPRPRPRPTPNPRP,0.333
20,RRIRFRPPRLPRPRPRPGSSPRP,-0.0565
21,RRIRSRPPRLPRPRPRPKNRPRP,0.0193
22,RRIRSRPPRLPRPRPRPCFVPRP,-0.378
23,RRIRIRPPRLPRPRPRPWLSPRP,-0.238
24,RRIRDRPPRLPRPRPRPHAKPRP,0.0435
25,RRIRIRPPRLPRPRPRPFIHPRP,-0.872

row,Sequence,shrunken log2 fold change
1,RRIRQRPPRLPRPRPRPPAWPRP,0.0654
2,RRIRPRPPRLPRPRPRPVGEPRP,0.415
3,RRIRMRPPRLPRPRPRPHKIPRP,-0.188
4,RRIRKRPPRLPRPRPRPFLCPRP,0.158
5,RRIRSRPPRLPRPRPRPARFPRP,0.181
6,RRIRIRPPRLPRPRPRPKNFPRP,-0.0927
7,RRIRIRPPRLPRPRPRPNEMPRP,-0.0277
8,RRIRQRPPRLPRPRPRPHNPPRP,-0.33
9,RRIRARPPRLPRPRPRPGYVPRP,-0.0339
10,RRIRKRPPRLPRPRPRPEDDPRP,0.00862
11,RRIRCRPPRLPRPRPRPRLMPRP,0.174
12,RRIRFRPPRLPRPRPRPQAFPRP,-0.175
13,RRIRQRPPRLPRPRPRPDMFPRP,0.0212
14,RRIRFRPPRLPRPRPRPVCCPRP,-0.0027
15,RRIRNRPPRLPRPRPRPRMQPRP,-0.0634
16,RRIRWRPPRLPRPRPRPVHGPRP,0.492
17,RRIRVRPPRLPRPRPRPLKMPRP,-0.561
18,RRIRQRPPRLPRPRPRPKNNPRP,-0.616
19,RRIRTRPPRLPRPRPRPAIKPRP,0.957
20,RRIRARPPRLPRPRPRPERVPRP,0.577
21,RRIRERPPRLPRPRPRPIGLPRP,-0.293
22,RRIRNRPPRLPRPRPRPSKIPRP,-0.846
23,RRIRGRPPRLPRPRPRPFSVPRP,0.429
24,RRIRERPPRLPRPRPRPMKQPRP,-0.0573
25,RRIRMRPPRLPRPRPRPLEAPRP,2.46

row,Sequence,shrunken log2 fold change
1,RRIRCRPPRLPRPRPRPDMNPRP,-0.312
2,RRIRNRPPRLPRPRPRPTAQPRP,0.136
3,RRIRKRPPRLPRPRPRPHEAPRP,-0.022
4,RRIRRRPPRLPRPRPRPPAIPRP,1.03
5,RRIRIRPPRLPRPRPRPFNNPRP,-0.318
6,RRIRWRPPRLPRPRPRPFEMPRP,-0.116
7,RRIRERPPRLPRPRPRPCEKPRP,0.0102
8,RRIRNRPPRLPRPRPRPWYCPRP,-0.451
9,RRIRNRPPRLPRPRPRPLKDPRP,-0.0618
10,RRIRWRPPRLPRPRPRPEKCPRP,0.0983
11,RRIRERPPRLPRPRPRPAASPRP,0.141
12,RRIRKRPPRLPRPRPRPAFDPRP,0.451
13,RRIRKRPPRLPRPRPRPVMYPRP,-0.144
14,RRIRARPPRLPRPRPRPHVVPRP,-0.288
15,RRIRNRPPRLPRPRPRPILGPRP,-0.00992
16,RRIRGRPPRLPRPRPRPCKKPRP,0.00863
17,RRIRTRPPRLPRPRPRPEIDPRP,0.0426
18,RRIRFRPPRLPRPRPRPKGCPRP,0.418
19,RRIRGRPPRLPRPRPRPFNIPRP,-0.199
20,RRIRWRPPRLPRPRPRPNTVPRP,0.178
21,RRIRVRPPRLPRPRPRPFDQPRP,-0.365
22,RRIRQRPPRLPRPRPRPRGCPRP,0.199
23,RRIRPRPPRLPRPRPRPPCQPRP,0.268
24,RRIRCRPPRLPRPRPRPIHIPRP,-0.893
25,RRIRCRPPRLPRPRPRPVGPPRP,0.326

row,Sequence,shrunken log2 fold change
1,RRIRGRPPRLPRPRPRPQHKPRP,-0.00366
2,RRIRNRPPRLPRPRPRPWGNPRP,0.00408
3,RRIRERPPRLPRPRPRPTRHPRP,0.157
4,RRIRRRPPRLPRPRPRPETFPRP,-0.0525
5,RRIRWRPPRLPRPRPRPWDCPRP,-0.0326
6,RRIRGRPPRLPRPRPRPQDTPRP,0.0614
7,RRIRTRPPRLPRPRPRPIVVPRP,-9.82e-05
8,RRIRFRPPRLPRPRPRPVCHPRP,-0.705
9,RRIRARPPRLPRPRPRPSYVPRP,-0.232
10,RRIRNRPPRLPRPRPRPLGRPRP,0.244
11,RRIRRRPPRLPRPRPRPRRPPRP,0.639
12,RRIRRRPPRLPRPRPRPHRRPRP,-0.000685
13,RRIRRRPPRLPRPRPRPRKAPRP,0.885
14,RRIRFRPPRLPRPRPRPTYGPRP,-0.252
15,RRIRWRPPRLPRPRPRPDFVPRP,0.0377
16,RRIRPRPPRLPRPRPRPEKNPRP,0.101
17,RRIRIRPPRLPRPRPRPTEQPRP,-0.348
18,RRIRHRPPRLPRPRPRPMKEPRP,0.0572
19,RRIRARPPRLPRPRPRPWFSPRP,-0.00399
20,RRIRTRPPRLPRPRPRPCLYPRP,-0.342
21,RRIRERPPRLPRPRPRPYGHPRP,-0.136
22,RRIRNRPPRLPRPRPRPCLTPRP,0.0253
23,RRIRDRPPRLPRPRPRPKTGPRP,-0.111
24,RRIRIRPPRLPRPRPRPDMAPRP,-0.0603
25,RRIRPRPPRLPRPRPRPKNWPRP,0.261

row,Sequence,shrunken log2 fold change
1,RRIRSRPPRLPRPRPRPSEWPRP,0.0157
2,RRIRWRPPRLPRPRPRPVNWPRP,0.537
3,RRIRYRPPRLPRPRPRPLKYPRP,-0.352
4,RRIRNRPPRLPRPRPRPETPPRP,0.36
5,RRIRERPPRLPRPRPRPILIPRP,-0.0809
6,RRIRVRPPRLPRPRPRPVSIPRP,0.126
7,RRIRFRPPRLPRPRPRPFHSPRP,-0.0346
8,RRIRQRPPRLPRPRPRPVAEPRP,0.478
9,RRIRWRPPRLPRPRPRPHQVPRP,-0.145
10,RRIRLRPPRLPRPRPRPTNGPRP,0.129
11,RRIRARPPRLPRPRPRPPVRPRP,0.609
12,RRIRVRPPRLPRPRPRPRADPRP,0.43
13,RRIRWRPPRLPRPRPRPSIGPRP,-0.175
14,RRIRDRPPRLPRPRPRPTLFPRP,0.533
15,RRIRMRPPRLPRPRPRPKFAPRP,0.51
16,RRIRGRPPRLPRPRPRPIPNPRP,0.172
17,RRIRARPPRLPRPRPRPKARPRP,1.16
18,RRIRHRPPRLPRPRPRPNLNPRP,-0.786
19,RRIRARPPRLPRPRPRPKVMPRP,0.176
20,RRIRMRPPRLPRPRPRPMESPRP,-0.00987
21,RRIRSRPPRLPRPRPRPRFIPRP,0.00415
22,RRIRERPPRLPRPRPRPMPQPRP,-0.201
23,RRIRGRPPRLPRPRPRPVRAPRP,1.01
24,RRIRMRPPRLPRPRPRPYDTPRP,-0.171
25,RRIRHRPPRLPRPRPRPKDYPRP,0.0577

row,Sequence,shrunken log2 fold change
1,RRIRERPPRLPRPRPRPPRNPRP,0.0296
2,RRIRMRPPRLPRPRPRPKLWPRP,1.41
3,RRIRSRPPRLPRPRPRPWGRPRP,0.196
4,RRIRERPPRLPRPRPRPQYCPRP,-0.0302
5,RRIRERPPRLPRPRPRPLYRPRP,-0.474
6,RRIRIRPPRLPRPRPRPQNDPRP,-0.296
7,RRIRNRPPRLPRPRPRPELTPRP,0.162
8,RRIRPRPPRLPRPRPRPRWRPRP,0.542
9,RRIRFRPPRLPRPRPRPILTPRP,-0.689
10,RRIRFRPPRLPRPRPRPTCFPRP,-0.157
11,RRIRSRPPRLPRPRPRPKELPRP,0.0175
12,RRIRYRPPRLPRPRPRPATSPRP,-0.452
13,RRIRGRPPRLPRPRPRPAFEPRP,0.414
14,RRIRPRPPRLPRPRPRPWYKPRP,0.215
15,RRIRNRPPRLPRPRPRPPAFPRP,0.0832
16,RRIRFRPPRLPRPRPRPMIRPRP,-0.163
17,RRIRSRPPRLPRPRPRPPMRPRP,1.02
18,RRIRIRPPRLPRPRPRPKDHPRP,-0.222
19,RRIRRRPPRLPRPRPRPNWMPRP,0.0739
20,RRIRSRPPRLPRPRPRPNPSPRP,-0.00593
21,RRIRLRPPRLPRPRPRPCLTPRP,-0.304
22,RRIRDRPPRLPRPRPRPTQNPRP,0.789
23,RRIRRRPPRLPRPRPRPVIEPRP,0.119
24,RRIRWRPPRLPRPRPRPCINPRP,-0.374
25,RRIRKRPPRLPRPRPRPKSVPRP,0.451
